Data on 14 molecules can be found in patent US20240059799A1 (Pfizer, published 2024).

T1: recombinant human TL1A (human, UniProt O95150 71-251)
T1 construct: The ELISA method says only 'recombinant TL1A' coated on plates; homotrimeric cytokine; also called TNFSF15; recombinant TL1A
T1 chain: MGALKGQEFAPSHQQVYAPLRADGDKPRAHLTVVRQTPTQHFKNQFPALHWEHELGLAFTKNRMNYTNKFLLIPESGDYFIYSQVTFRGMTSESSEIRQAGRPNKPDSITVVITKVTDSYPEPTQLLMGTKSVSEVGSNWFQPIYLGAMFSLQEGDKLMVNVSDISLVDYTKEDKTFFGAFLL

B1: TL1A-0002 (antibody, human IgG1, kappa, V domains shown)
VH: QVQLVQSGAEVKKPGASVKVSCKASGYDFTYYGISWVRQAPGQGLEWMGWISTYNGNTHYARMLQGRVTMTTDTSTRTAYMELRSLRSDDTAVYYCARENYYGSGAYRGGMDVWGQGTTVTVSS
VL: EIVLTQSPATLSLSPGERATLSCRASQSVSSYLAWYQQKPGQAPRLLIYDASNRATGIPARFSGSGSGTDFTLTISSLEPEDFAVYYCQQRSNWPWTFGQGTKVEIKR
notes: human IgG1 effector-function-minimized / human kappa; also called parental TL1A-0002 antibody
B2: TL1A-0252 (antibody, V domains shown)
VH: QVQLVQSGAEVKKPGASVKVSCKASGYDFTYYGISWVRQAPGQGLEWMGWISTYNTNTHYAPSLQGRVTMTTDTSTSTAYMELRSLRSDDTAVYYCARESYYGSGAFRGGMDVWGQGTTVTVSS
VL: DIQMTQSPSSLSASVGDRVTITCRASQSVSSYLAWYQQKPGKAPKLLIYDASNRATGVPSRFSGSGSGTDFTLTISSLQPEDFATYYCQQRSNWPWTFGQGTKVEIKR
notes: IgG1 effector-minimized/kappa
B3: TL1A-0243 (antibody, V domains shown)
VH: QVQLVQSGAEVKKPGASVKVSCKASGYDFTYYGISWVRQAPGQGLEWMGWISTYNDNTHYAPSLQGRVTMTTDTSTSTAYMELRSLRSDDTAVYYCARESYYGSGAHRGGMDVWGQGTTVTVSS
VL: DIQMTQSPSSLSASVGDRVTITCRASQSVSSYLAWYQQKPGKAPKLLIYDASNRATGVPSRFSGSGSGTDFTLTISSLQPEDFATYYCQQRSNWPWTFGQGTKVEIKR
notes: IgG1 effector-minimized/kappa
B4: TL1A-0246 (antibody, V domains shown)
VH: QVQLVQSGAEVKKPGASVKVSCKASGYDFTYYGISWVRQAPGQGLEWMGWISTYNTGTHYAPSLQGRVTMTTDTSTSTAYMELRSLRSDDTAVYYCARESYYGSGAFRGGMDVWGQGTTVTVSS
VL: DIQMTQSPSSLSASVGDRVTITCRASQSVSSYLAWYQQKPGKAPKLLIYDASNRATGVPSRFSGSGSGTDFTLTISSLQPEDFATYYCQQRSNWPWTFGQGTKVEIKR
notes: IgG1 effector-minimized/kappa
B5: TL1A-0247 (antibody, V domains shown)
VH: QVQLVQSGAEVKKPGASVKVSCKASGYDFTYYGISWVRQAPGQGLEWMGWISTYNTGTHYAPSLQGRVTMTTDTSTSTAYMELRSLRSDDTAVYYCARESYYGSGAHRGGMDVWGQGTTVTVSS
VL: DIQMTQSPSSLSASVGDRVTITCRASQSVSSYLAWYQQKPGKAPKLLIYDASNRATGVPSRFSGSGSGTDFTLTISSLQPEDFATYYCQQRSNWPWTFGQGTKVEIKR
notes: IgG1 effector-minimized/kappa
B6: TL1A-0189 (antibody, human IgG1, kappa, V domains shown)
VH: QVQLVQSGAEVKKPGASVKVSCKASGYDFTYYGISWVRQAPGQGLEWMGWISTYNGNTHYARMLQGRVTMTTDTSTSTAYMELRSLRSDDTAVYYCARENYYGSGAYRGGMDVWGQGTTVTVSS
VL: DIQMTQSPSSLSASVGDRVTITCRASQSVSSYLAWYQQKPGKAPKLLIYDASNRATGVPSRFSGSGSGTDFTLTISSLQPEDFATYYCQQRSNWPWTFGQGTKVEIKR
notes: IgG1 effector-minimized/kappa
B7: TL1A-0042 (antibody, human IgG1, kappa, V domains shown)
VH: QVQLVQSGAEVKKPGASVKVSCKASGYDFTYYGISWVRQAPGQGLEWMGWISTYNGNTHYARMLQGRVTMTTDTSTRTAYMELRSLRSDDTAVYYCARENYYGSGAYRGGMDVWGQGTTVTVSS
VL: DIQMTQSPSSLSASVGDRVTITCRASQSVSSYLAWYQQKPGKAPKLLIYDASNRATGVPSRFSGSGSGTDFTLTISSLQPEDFATYYCQQRSNWPWTFGQGTKVEIKR
notes: TL1A-0002 heavy chain with light chain CDRs grafted onto IGKV1-39*01; human IgG1 effector-function-minimized / human kappa
B8: TL1A-0248 (antibody, V domains shown)
VH: QVQLVQSGAEVKKPGASVKVSCKASGYDFTYYGISWVRQAPGQGLEWMGWISTYNTGTHYAQKLQGRVTMTTDTSTSTAYMELRSLRSDDTAVYYCARESYYGSGAFRGGMDVWGQGTTVTVSS
VL: DIQMTQSPSSLSASVGDRVTITCRASQSVSSYLAWYQQKPGKAPKLLIYDASNRATGVPSRFSGSGSGTDFTLTISSLQPEDFATYYCQQRSNWPWTFGQGTKVEIKR
notes: IgG1 effector-minimized/kappa
B9: TL1A-0253 (antibody, V domains shown)
VH: QVQLVQSGAEVKKPGASVKVSCKASGYDFTYYGISWVRQAPGQGLEWMGWISTYNTNTHYAPSLQGRVTMTTDTSTSTAYMELRSLRSDDTAVYYCARESYYGSGAHRGGMDVWGQGTTVTVSS
VL: DIQMTQSPSSLSASVGDRVTITCRASQSVSSYLAWYQQKPGKAPKLLIYDASNRATGVPSRFSGSGSGTDFTLTISSLQPEDFATYYCQQRSNWPWTFGQGTKVEIKR
notes: IgG1 effector-minimized/kappa
B10: TL1A-0251 (antibody, V domains shown)
VH: QVQLVQSGAEVKKPGASVKVSCKASGYDFTYYGISWVRQAPGQGLEWMGWISTYNTVTHYAPSLQGRVTMTTDTSTSTAYMELRSLRSDDTAVYYCARESYYGSGAHRGGMDVWGQGTTVTVSS
VL: DIQMTQSPSSLSASVGDRVTITCRASQSVSSYLAWYQQKPGKAPKLLIYDASNRATGVPSRFSGSGSGTDFTLTISSLQPEDFATYYCQQRSNWPWTFGQGTKVEIKR
notes: IgG1 effector-minimized/kappa
B11: TL1A-0242 (antibody, V domains shown)
VH: QVQLVQSGAEVKKPGASVKVSCKASGYDFTYYGISWVRQAPGQGLEWMGWISTYNDNTHYAPSLQGRVTMTTDTSTSTAYMELRSLRSDDTAVYYCARESYYGSGAFRGGMDVWGQGTTVTVSS
VL: DIQMTQSPSSLSASVGDRVTITCRASQSVSSYLAWYQQKPGKAPKLLIYDASNRATGVPSRFSGSGSGTDFTLTISSLQPEDFATYYCQQRSNWPWTFGQGTKVEIKR
notes: IgG1 effector-minimized/kappa
B12: TL1A-0244 (antibody, V domains shown)
VH: QVQLVQSGAEVKKPGASVKVSCKASGYDFTYYGISWVRQAPGQGLEWMGWISTYNDNTHYAQKLQGRVTMTTDTSTSTAYMELRSLRSDDTAVYYCARESYYGSGAFRGGMDVWGQGTTVTVSS
VL: DIQMTQSPSSLSASVGDRVTITCRASQSVSSYLAWYQQKPGKAPKLLIYDASNRATGVPSRFSGSGSGTDFTLTISSLQPEDFATYYCQQRSNWPWTFGQGTKVEIKR
notes: IgG1 effector-minimized/kappa
B13: TL1A-0245 (antibody, V domains shown)
VH: QVQLVQSGAEVKKPGASVKVSCKASGYDFTYYGISWVRQAPGQGLEWMGWISTYNDNTHYAQKLQGRVTMTTDTSTSTAYMELRSLRSDDTAVYYCARESYYGSGAHRGGMDVWGQGTTVTVSS
VL: DIQMTQSPSSLSASVGDRVTITCRASQSVSSYLAWYQQKPGKAPKLLIYDASNRATGVPSRFSGSGSGTDFTLTISSLQPEDFATYYCQQRSNWPWTFGQGTKVEIKR
notes: IgG1 effector-minimized/kappa
B14: TL1A-0249 (antibody, V domains shown)
VH: QVQLVQSGAEVKKPGASVKVSCKASGYDFTYYGISWVRQAPGQGLEWMGWISTYNTGTHYAQKLQGRVTMTTDTSTSTAYMELRSLRSDDTAVYYCARESYYGSGAHRGGMDVWGQGTTVTVSS
VL: DIQMTQSPSSLSASVGDRVTITCRASQSVSSYLAWYQQKPGKAPKLLIYDASNRATGVPSRFSGSGSGTDFTLTISSLQPEDFATYYCQQRSNWPWTFGQGTKVEIKR
notes: IgG1 effector-minimized/kappa

In general, IC50 refers to the concentration at which inhibition is half-maximal.

The assay deals with T1, recombinant human TL1A. Description: competition ELISA on coated recombinant TL1A; competitor biotinylated TL1A-0002. The method, then: For this competition ELISA assay procedure, 96-well high binding plates (Corning, product number 3590) were coated with 1 μg/mL recombinant TL1A in 100 μL/well in Phospate Buffered Saline (PBS) overnight at 4° C. Plates were then blocked in PBS+0.02% casein solution and washed with PBS+0.05% Tween-20 following standard ELISA protocol. […] Plates were washed with PBS+0.05% Tween-20 following standard ELISA protocol, and Streptavidin-HRP (Southern Biotech, product number 7100-05) diluted to 1:10,000 in assay buffer was added to plates and incubated for 25-30 minutes at room temperature. Next, the plates were washed with PBS+0.05% Tween-20 following standard ELISA protocol, and then TMB substrate (BioFX Laboratories, catalog number TMBW-0100-01) was added to plates. Reactions were stopped after approximately 5 minutes by adding 0.18 M ortho-phosphoric acid to each well and absorbance was read at 450 nm.
On the technique in general: An ELISA detects its analyte on a solid surface through an enzyme-linked reagent.
Turning to B1, the “Bioactivity relative to TL1A-0002” value worked out at 1 fold and the IC50 was 5 nM.
Turning to B2, the “Bioactivity relative to TL1A-0002” value came to 2.7 fold and the 50% inhibitory concentration (IC50) came to 13.5 nM.
Take B3: the “Bioactivity relative to TL1A-0002” value came out at 2.9 fold and the 50% inhibitory concentration (IC50) is 14.5 nM.
B4: the “Bioactivity relative to TL1A-0002” value was 2.6 fold and the 50% inhibitory concentration (IC50) is 13.3 nM.
The matching figures for B5: 2.4 fold and 12.2 nM.
B6: the “Bioactivity relative to TL1A-0002” value was determined as 0.8 fold and the IC50 amounted to 3.8 nM.
As for B7, the “Bioactivity relative to TL1A-0002” value stood at 0.8 fold and the concentration for half-maximal inhibition (IC50) came to 4.2 nM.
Regarding B8, the “Bioactivity relative to TL1A-0002” value is 3.2 fold and the 50% inhibitory concentration (IC50) came to 16 nM.
Taken in the same sequence, the figures for B9 were 2.7 fold and 13.4 nM.
The matching figures for B10: 3.2 fold and 16.2 nM.
The matching figures for B11: 3.2 fold and 16.2 nM.
Take B12: the “Bioactivity relative to TL1A-0002” value is 3.5 fold and the IC50 worked out at 17.6 nM.
Turning to B13, the “Bioactivity relative to TL1A-0002” value worked out at 3.2 fold and the IC50 worked out at 16.2 nM.
The matching figures for B14: 3.1 fold and 15.7 nM.
